Where a SMILES comes first, the peptide text is derived from it. The star is where a group is joined. Cbz = O=C(OCc1ccccc1)*; CHN2 = [N-]=[N+]=C*; tBu = CC(C)(C)*
Key:
[1] = system: RAW264.7 cells; assay: Internalization of His-tagged CST6 protein by RAW264.7 (Western blot); format: cell-based, mouse; details: RAW264.7 cultured with CST6-His and various concentrations of Dynasore; Fig. 2K
Description: Cathepsins are lysosomal proteases and function only intracellularly in acidic environment. To verify that extracellularly derived CST6 could inhibit the intracellular CTSB activity of osteoclasts, RAW264.7 cells were cultured in the medium containing recombinant CST6 protein and the cell lysates were collected for CTSB activity analysis after phosphate-buffered saline (PBS) washing of the cells. […] Since osteoclasts are active in endocytosis, it is likely that exogenous CST6 is transported into osteoclasts via endocytosis. Indeed, we observed a co-localization of CST6 that entered the cells with the lysosome marker LAMP1 (Fig. S3B). […] Endocytosis inhibition also rescued the CST6-suppressed osteoclastogenesis of RAW264.7 cells (Fig. 2L).

[2] = system: SPHK1; assay: Intracellular SPHK1 protein level in RAW264.7 (Western blot); format: cell-based, mouse; details: Fig. 3B
Source text: SPHK1 is cleaved by CTSB [20], and more importantly, SPHK1 can negatively regulate osteoclast differentiation by phosphorylating sphingosine into sphingosine-1-phosphate (S1P). Concordantly, we observed that Ctsb knockdown increased SPHK1 expression in primary bone marrow cells (Fig. 3A). […] Similarly, Sphk1 knockdown could also recover osteoclastogenesis of RAW264.7 that was suppressed by the treatment of CST6 recombinant (Fig. 3G, H).

[3] = system: murine primary bone marrow cells; assay: Osteoclastogenesis of primary bone marrow cells (TRAP staining); format: cell-based, mouse; details: n = 3 independent experiments; for osteoclast differentiation of primary bone marrow cells: 10 μM inhibitor, Fig. 2F
Description: (§1) Primary bone marrow cells were harvested by flushing the cavity of tibia and femur from 5-6 week old Balb/c mice. Erythrocytes were removed by treating cell suspension with the Red Blood Cell Lysing Buffer (R7757, Sigma) for 5 min. The remaining cells were cultured in α-MEM (A1049001, Gibco) supplemented with 10% FBS and 5 ng/ml M-CSF for 12 h. Non-adherent cells were transferred into a 24-well plate and cultured in α-MEM supplemented with 10% FBS, 25 ng/ml M-CSF and 25 ng/ml RANKL for another 5 to 6 days. Cancer cell CM was mixed with α-MEM at a ratio of 1:3. CST6 protein, peptides or other drugs at indicated concentrations were administrated into the culture medium. For assessment of osteoclast differentiation, cells were stained using the Acid Phosphatase TRAP staining kit (387A, Sigma) as previously described. For RAW264.7 osteoclastogenesis assay, 700 cells per well were added into a 96-well plate and cultured in the same medium as shown above except that M-CSF was not essential. 7 ug/ml CST6 antibody (MAB1286, R&D) was used to neutralize recombinant human CST6 in RAW264.7 osteoclastogenesis assay.

[4] = system: RAW264.7 cells; assay: RAW264.7 osteoclastogenesis assay; format: cell-based, mouse
Description: as §1

[5] = system: SCP2 cells; assay: SCP2 bone metastasis in mice (intracardiac injection); format: in vivo, mouse
Description: For bone metastasis study was performed as previously described. Briefly, athymic Balb/c mice were anesthetized and 10^5 cells in 100 μL phosphate-buffered saline (PBS) were injected into the left cardiac ventricle. Peptides were administrated intravenously into the mice (n = 10 per group) at a dose of 1 mg/kg/day. The control mouse group were administered with same volume of peptide solvents. The metastatic burden was measured by bioluminescent imaging (BLI) with a NightOWL II LB983 Imaging System (Berthold). The osteolytic area was analyzed by the SkyScan 1076 In vivo X-ray Microtomograph (Bruker). The sections of hind legs of the mice was used for H&E, TRAP and immunohistochemistry staining.

[6] = Chronic toxicity assay; format: in vivo, mouse; details: 10 mg/kg CA-074 for 8 consecutive days, nude mice, n = 9 per group; Fig. S6B
Description: […] The body weights of the mice were measured. […] Mice were sacrificed and organs were harvested for weight measurements and H&E staining to observe the pathological changes.

[7] = system: p38; assay: Phosphorylation of p38 in RAW264.7 (Western blot); format: cell-based, mouse
Description: To further validate the involvement of p38 signaling in CST6-suppresesed osteoclastogenesis, the p38 inhibitor SB203580 was used to treat RAW264.7 cells that were cultured in cancer cell CM.

[8] = Pharmacokinetic assay, circulation half-life; format: in vivo, mouse; details: Balb/c mice, 1 mg/kg intravenous, serum 0.25-4 h, ELISA (CST6 or His-tag), one-phase decay model; n = 4
Description: For pharmacokinetic assays, CST6 protein or His-tagged peptides were administrated intravenously into Balb/c mice (n = 4 per group) at a dose of 1 mg/kg. Blood samples (100 μL) were collected using capillary at 0.25 h, 0.5 h, 1 h, 2 h, 3 h and 4 h, respectively. After 1 h at room temperature, the serum samples were obtained from the supernatant by centrifugation at 3000 rpm for 15 min. The CST6 content in serum was analyzed with CST6 ELISA kit (Sino Biological, 10438). The peptide content was analyzed with the His-tag ELISA kit (GenScript, L00436) according to the manufacturer's instruction. Blank serum samples from mice without protein/peptide administration were used as control. Standard curves for each protein or peptide were generated with standard samples of known concentrations to calculate the protein/peptide concentration in blood samples. The data for all peptides were fitted with the one-phase decay model using Prizm software (GraphPad Software) to calculate the half-lives.

[9] = system: SCP2/SCP4 tumor cells; assay: Tumor cell growth after CST6 recombinant protein treatment; format: cell-based; details: 32 nM, n = 4 biological repeats, Fig. S1F
[10] = Acute toxicity assay; format: in vivo, mouse; details: Balb/c mice, intravenous, death counted after 24 h, n = 5 per group
Description: For acute toxicity assays, Balb/c mice (n = 5 per group) were intravenously injected with the indicated protein or peptides at doses of 150, 200, 250, 300, 350 mg/kg. The death of mice was counted after 24 h. The median lethal dose (LD50) was calculated using the Bliss method.

[11] = Tissue distribution by CST6 immunohistochemistry; format: in vivo, mouse; details: week 5 of 1 mg/kg/day, Fig. S6A
Description: We then performed pharmacological evaluation of CST6 protein and peptides.
Supplementary Figure 6. Pharmacological evaluation of CST6 recombinant protein and CA-074.
(A) CST6 immunohistochemistry in various organs at week 5 after administration of 1 mg/kg/day CST6 peptides. The lung section from un-treated mice was used as negative control of the assay. Dotted lines denotes areas of bone metastasis. Scale bar, 150 μm. (B) The body weights of nude mice after treatment of 10 mg/kg CA-074 for 8 consecutive days (n = 9 mice per groups).
(1 picture or pasted object on this page, not shown here)

[12] = system: RAW264.7 or primary bone marrow-derived osteoclasts; assay: Viability of osteoclasts after CST6 recombinant protein treatment; format: cell-based, mouse; details: n = 4 independent experiments; Fig. S1E
[13] = target: T1, CTSB (Mus musculus, UniProt P10605); assay: Intracellular CTSB activity of RAW264.7 after treatment; format: cell-based; details: 32 nM CST6 protein in medium, lysates after PBS washing; Fig. 2I
T1 construct: endogenous in cells; host or cells: RAW264.7
Description: Cathepsins are lysosomal proteases and function only intracellularly in acidic environment. To verify that extracellularly derived CST6 could inhibit the intracellular CTSB activity of osteoclasts, RAW264.7 cells were cultured in the medium containing recombinant CST6 protein and the cell lysates were collected for CTSB activity analysis after phosphate-buffered saline (PBS) washing of the cells. […] Since osteoclasts are active in endocytosis, it is likely that exogenous CST6 is transported into osteoclasts via endocytosis. Indeed, we observed a co-localization of CST6 that entered the cells with the lysosome marker LAMP1 (Fig. S3B). […]
Enzymatic activities of cathepsins were analyzed with the fluorometric kits of CTSB (K147, Biovision) and CTSL (K161, Biovision) according to the manufacturer's protocol. The LGMN activity was analyzed as previously described with minor modifications of the protocol. […] After three freeze-thaw cycles at -80 °C, the cell lysate was centrifuged at 10000 g for 15 min and the supernatant was transferred into a new tube followed by protein quantification. […] After adding 1 μL substrate Z-Ala-Ala-Asn-AMC (I1865, Bachem) into each well with a final concentration of 10 μM, fluorescence measurements were performed every 5 min at 37 °C using a BioTek's Synergy™ Mx Microplate Reader with a 360 nm excitation filter and a 460 nm emission filter. […]

[14] = nude mice with SCP2, 1 mg/kg/day intravenous, n = 10 mice per group

T1 sequence (P10605 80-339): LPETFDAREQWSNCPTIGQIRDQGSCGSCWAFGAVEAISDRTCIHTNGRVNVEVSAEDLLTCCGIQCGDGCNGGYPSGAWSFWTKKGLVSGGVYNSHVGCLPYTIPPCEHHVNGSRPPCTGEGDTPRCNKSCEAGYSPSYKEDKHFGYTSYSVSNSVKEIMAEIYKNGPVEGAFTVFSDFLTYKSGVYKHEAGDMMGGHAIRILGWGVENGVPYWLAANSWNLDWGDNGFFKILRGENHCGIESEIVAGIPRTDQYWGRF

O=C(N/N=C/c1ccc(O)c(O)c1)c1cc2ccccc2cc1O [Dynasore]
effect on intracellular accumulation of CST6 [1]: reduced the intracellular accumulation of CST6 in a dosage-dependent manner

CCCNC(=O)[C@H]1O[C@@H]1C(=O)N[C@H](C(=O)N1CCC[C@H]1C(=O)OC)[C@@H](C)CC [CA-074Me]
intracellular SPHK1 protein [2]: stabilized the intracellular SPHK1 protein in a dose-dependent manner
osteoclast differentiation of primary bone marrow cells [3]: able to inhibit osteoclast differentiation
osteoclast differentiation of RAW264.7 cells ([4]; treatment with Z-FY or CA074Me, n = 3 independent experiments, Fig. 2G): able to inhibit osteoclast differentiation

CC(C)C[C@H](NC(=O)[C@H](Cc1ccccc1)NC(=O)c1cnccn1)B(O)O [Bortezomib, reference compound]
body weight of metastasis-bearing mice ([5]; nude mice with SCP2, 1 mg/kg/day, Fig. 5F, Fig. S5B (week 5)): but not Bortezomib, recovered the body weight of mice

CCCNC(=O)[C@H]1O[C@@H]1C(=O)N[C@H](C(=O)N1CCC[C@H]1C(=O)O)[C@@H](C)CC [CA-074]
body weight of mice [6]: caused apparent body weight loss of the mice

C[S+]([O-])c1ccc(-c2nc(-c3ccncc3)c(-c3ccc(F)cc3)[nH]2)cc1 (stereo not drawn) [SB203580, reference compound]
CM-induced p38 phosphorylation ([7]; RAW264.7 with RANKL and CM from CST6-knockdown or control SCP4, opposite to enhancement, Fig. 3K): showed the opposite effect
CM-induced osteoclast maturation of RAW264.7 ([4]; RAW264.7 with RANKL and CM from CST6-knockdown or control SCP4, opposite to enhancement, Fig. 3L): showed the opposite effect

CC(C)(C)Oc1ccc(C[C@H](NC(=O)[C@H](Cc2ccccc2)NC(=O)OCc2ccccc2)C(=O)C=[N+]=[N-])cc1 [Z-FY(t-Bu)-DMK] (Cbz-Phe-Tyr(tBu)-CHN2)
osteoclast differentiation of primary bone marrow cells [3]: but not the CTSL inhibitor Z-FY(t-Bu)-DMK, was able to inhibit osteoclast differentiation

B1: CST6: human CST6 recombinant protein expressed in E. coli, type 2 cystatin, inhibitor of cysteine proteases (protein, UniProt Q15828 29-149, looked up)
Cystatin-M: RPQERMVGELRDLSPDDPQVQKAAQAAVASYNMGSNSIYYFRDTHIIKAQSQLVAGIKYFLTMEMGSTDCRKTRVTGDHVDLTTCPLAAGAQQEKLRCDFEVLVVPWQNSSQLLKHNCVQM
modifications: His tag
bone metastasis (BLI) ([5]; nude mice pre-inoculated with SCP2, 1 mg/kg/day intravenous, n = 10 mice per group): efficiently alleviated bone metastasis
osteoclastogenesis and bone destruction in metastases (TRAP+ cells, micro-CT) [5, 14]: reduced osteoclastogenesis and bone destruction
survival of the mice [5, 14]: extended survival of the mice
Half-life [8]: 10.48 min
growth of tumor cells [9]: did not directly affect the growth of tumor cells
LD50 ([10]; 150-350 mg/kg, Bliss method): 322.00 ± 117.10 mg/kg
MTD [10]: 200 mg/kg
tissue distribution of administrated protein [11]: mainly distributed in liver, kidney, intestine, spleen and bone metastasis foci
intracellular SPHK1 protein [2]: stabilized the intracellular SPHK1 protein in a dose-dependent manner
osteoclastogenesis of primary bone marrow cells ([3]; RANKL-containing medium, 5 to 6 days, TRAP staining, indicated concentrations): significantly suppressed RANKL-induced differentiation of bone marrow cells into osteoclasts in a dosage-dependent manner
p38 activation ([7]; RAW264.7, Fig. 3B): inhibited p38 activation
viability of osteoclasts [12]: did not affect the viability of osteoclasts
intracellular CTSB activity of RAW264.7 [13]: inhibited the intracellular CTSB activity of RAW264.7
expression of marker genes of osteoclastic differentiation (Caclr, Nfatc1, Acp5, Ctsk, Fos) ([4]; RAW264.7, n = 3 biological repeats, Fig. 1J): downregulated
osteoclastic differentiation of RAW264.7 cells ([4]; cultured with RANKL, 32 nM human CST6 protein, Fig. 1I): inhibition of osteoclastic differentiation of cells
